Data on one substance can be found in patent US20200354692A1.

The assay concerns the target NAD(P)+-dependent methanol dehydrogenase from Bacillus methanolicus MGA3 (Genbank EIJ77596.1, GI 387585261) (Bacillus methanolicus MGA3) (UniProt P31005). As to the kind of experiment: cell-based or functional assay.

For “activator protein from Bacillus methanolicus MGA3 (locus tag MGA3_09170, GI 387591061, Accession EIJ83380) (from UniProt Q8KP10 1-185) (enzyme)”, the ratio of "act" to methanol dehydrogenase (in vitro activation test with 5 M methanol, 2 mM NAD, 10 uM methanol dehydrogenase 2315A, pH 7.4) (ratio act : methanol dehydrogenase) was determined as 10.
